One substance from paper PMC11330416 can be followed below.

For experiment [1], the target named is NRC SARS-CoV-2 (reference strain) spike protein reference material SMT1-1 (SARS-CoV-2 (reference strain, Wuhan-Hu-1)). Description: SEC-MALS; Waters BEH SEC 4.6 x 150 mm column (200 A for ACE2-1, 450 A for OMIC-1), DPBS with 0.02% Tween-20, pH 7.4, 0.4 mL/min; UV at 280 nm, MALS and RI detection; relative amounts of species from SEC-UV. On the technique in general: SEC sorts molecules by how far they enter the pores of the column.

The target in experiment [2] is biotinylated human angiotensin-converting enzyme 2 reference material ACE2-1 (human) (UniProt Q9BYF1). As to the kind of experiment: SPR; ACE2-1 immobilised by its biotin on streptavidin on a biotin-coated Au chip (250-300 RU), blocked with 10 uM BSA; spike analyte in a twofold series of 12.5-200 nM at 50 uL/min, about 90 s association, 30-45 min dissociation; 10 mM HEPES pH 7-7.4, 150 mM NaCl, 3 mM EDTA, 0.05% Tween-20; 1:1 binding model; averages of two independent experiments. A general note: Surface plasmon resonance follows binding to a sensor surface in real time, without labels.
Sequence of biotinylated human angiotensin-converting enzyme 2 reference material ACE2-1 (human) (Q9BYF1 20-614): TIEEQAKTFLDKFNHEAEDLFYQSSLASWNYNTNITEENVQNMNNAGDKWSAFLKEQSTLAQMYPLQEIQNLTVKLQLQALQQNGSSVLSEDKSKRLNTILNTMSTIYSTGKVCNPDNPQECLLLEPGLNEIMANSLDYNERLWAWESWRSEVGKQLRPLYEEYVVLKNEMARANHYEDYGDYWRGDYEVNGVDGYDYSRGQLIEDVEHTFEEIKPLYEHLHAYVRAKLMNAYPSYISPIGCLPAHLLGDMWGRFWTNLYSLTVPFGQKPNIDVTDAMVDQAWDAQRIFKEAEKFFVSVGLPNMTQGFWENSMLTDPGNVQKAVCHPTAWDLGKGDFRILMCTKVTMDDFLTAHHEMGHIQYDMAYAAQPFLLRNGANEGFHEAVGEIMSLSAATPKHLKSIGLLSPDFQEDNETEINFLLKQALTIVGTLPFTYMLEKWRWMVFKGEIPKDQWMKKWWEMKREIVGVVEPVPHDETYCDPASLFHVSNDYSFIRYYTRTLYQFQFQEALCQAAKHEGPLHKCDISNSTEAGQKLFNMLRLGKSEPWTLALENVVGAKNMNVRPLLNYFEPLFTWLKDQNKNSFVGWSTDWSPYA

For the substance “NRC SARS-CoV-2 (reference strain) spike protein reference material SMT1-1”, the stoichiometry N (usually the number of molecules, sites or subunits per partner or assembly) in experiment [1] was determined as 3. Besides, in experiment [2], the Kd (commonly the concentration at which binding is half-saturated) turned out to be 17.1 nM; the koff (as a rule, the first-order rate constant of dissociation) was found to be 0.0018 s⁻¹; the kon (commonly a measure of how fast the partners come together) was found to be 110000 M⁻¹ s⁻¹.
